Data on 1 molecule can be found in publication PMC3258384 (Journal of Molecular Biology, 2011).

The target in this assay is Human calmodulin (human, UniProt P0DP23 1-149). Put plainly: circular dichroism. In general terms: CD spectra are sensitive to the conformation of chiral molecules.

As for ARKEVIRNKIRAIGKMARVFSVLR [pCaN peptide, the CaM binding region in the RD of αCaN], the binding result was “binds”.
